In the test the target is T1, SpyCatcher002‐mut (H26Q H62Q), cleaved with TEV protease.
T1 construct: Second-generation SpyCatcher (SC002) redesigned with H26Q and H62Q; also called SC1m; SCm; source: recombinant, purified; not shown: HisTag, N-terminal, cleaved
Kind of test: LC-MS of the covalent adduct; 25 μM each in 20 mM HEPES, pH 7.4, room temperature, injected after 5 min; isopeptide-bonded ST/SC adduct detected by MS; repeated with Cu2+ without effect on adduct formation. To be noted: both partners purified.

No end group written: not given here.

T1 sequence (chain, as listed by the source): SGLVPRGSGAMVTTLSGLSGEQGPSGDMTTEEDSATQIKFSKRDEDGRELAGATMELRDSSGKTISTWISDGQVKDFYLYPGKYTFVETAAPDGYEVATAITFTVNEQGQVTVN

B1: ATCUN(DAH)‐SpyTag002 (peptide)
peptide: DAHVPTIVMVDAYKRY-NH2
notes: SpyTag002 peptide with an N-terminal DAH ATCUN copper site; lacks the last lysine and ends with an amidated tyrosine; also called ST‐A2; ST; source: synthetic peptide (solid‐phase peptide synthesis, RP‐HPLC)
As to B1, the binding result is recorded as “binds”.

B2: ATCUN(GSH)‐SpyTag002 (peptide)
peptide: GSHVPTIVMVDAYKRYK
notes: SpyTag002 peptide with an N-terminal GSH ATCUN copper site; also called ST‐A1; ST; source: synthetic peptide (solid‐phase peptide synthesis, RP‐HPLC)
Consider B2, for which the binding result is given as “binds”.

The values above are taken from paper PMC12278347, “Exploiting SpyTag/SpyCatcher Technology to Design New Artificial Catalytic Copper Proteins” (Chembiochem, 2025).
